{
  "source": "paper PMC2199960",
  "key": {"[1]": {"target": "collagen XII, small variant (small subunit, 220 kD) (chick)", "experiment": "electron microscopy"}, "[2]": {"target": "collagen XII, small variant (small subunit, 220 kD) (chick)", "experiment": "electron microscopy + nonreducing SDS-PAGE"}, "[3]": {"target": "collagen I from rat tail (rat) (UniProt P02454)", "sequence (P02454 152-1207, chain 1 of 2)": "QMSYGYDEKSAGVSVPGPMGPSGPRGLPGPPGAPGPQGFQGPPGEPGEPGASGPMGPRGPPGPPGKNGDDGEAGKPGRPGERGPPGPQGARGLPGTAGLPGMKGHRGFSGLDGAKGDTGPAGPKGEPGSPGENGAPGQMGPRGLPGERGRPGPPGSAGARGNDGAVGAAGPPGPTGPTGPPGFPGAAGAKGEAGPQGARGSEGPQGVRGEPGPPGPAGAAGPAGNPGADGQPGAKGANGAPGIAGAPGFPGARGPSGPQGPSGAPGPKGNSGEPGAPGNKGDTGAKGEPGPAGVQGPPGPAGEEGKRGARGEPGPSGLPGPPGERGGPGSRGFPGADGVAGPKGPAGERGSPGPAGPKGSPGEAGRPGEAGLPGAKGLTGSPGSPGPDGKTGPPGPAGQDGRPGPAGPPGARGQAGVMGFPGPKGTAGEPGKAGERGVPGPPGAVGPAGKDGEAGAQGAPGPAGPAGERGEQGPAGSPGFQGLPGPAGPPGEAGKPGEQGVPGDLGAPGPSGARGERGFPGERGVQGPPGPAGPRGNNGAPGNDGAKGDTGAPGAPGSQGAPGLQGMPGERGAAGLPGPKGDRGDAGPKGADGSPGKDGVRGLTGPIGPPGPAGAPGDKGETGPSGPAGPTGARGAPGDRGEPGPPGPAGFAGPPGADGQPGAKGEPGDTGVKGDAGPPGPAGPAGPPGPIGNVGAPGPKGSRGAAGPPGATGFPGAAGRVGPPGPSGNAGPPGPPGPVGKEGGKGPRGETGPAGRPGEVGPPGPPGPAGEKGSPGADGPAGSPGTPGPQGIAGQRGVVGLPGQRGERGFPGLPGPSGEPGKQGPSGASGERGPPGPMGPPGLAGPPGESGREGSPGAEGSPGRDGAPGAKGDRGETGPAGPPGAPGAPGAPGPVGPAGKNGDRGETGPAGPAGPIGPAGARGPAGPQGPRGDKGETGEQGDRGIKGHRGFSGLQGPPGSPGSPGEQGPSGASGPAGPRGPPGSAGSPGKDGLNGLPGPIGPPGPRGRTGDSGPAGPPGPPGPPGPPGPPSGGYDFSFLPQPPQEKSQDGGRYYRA", "sequence (P02466 86-1125, chain 2 of 2, further chain)": "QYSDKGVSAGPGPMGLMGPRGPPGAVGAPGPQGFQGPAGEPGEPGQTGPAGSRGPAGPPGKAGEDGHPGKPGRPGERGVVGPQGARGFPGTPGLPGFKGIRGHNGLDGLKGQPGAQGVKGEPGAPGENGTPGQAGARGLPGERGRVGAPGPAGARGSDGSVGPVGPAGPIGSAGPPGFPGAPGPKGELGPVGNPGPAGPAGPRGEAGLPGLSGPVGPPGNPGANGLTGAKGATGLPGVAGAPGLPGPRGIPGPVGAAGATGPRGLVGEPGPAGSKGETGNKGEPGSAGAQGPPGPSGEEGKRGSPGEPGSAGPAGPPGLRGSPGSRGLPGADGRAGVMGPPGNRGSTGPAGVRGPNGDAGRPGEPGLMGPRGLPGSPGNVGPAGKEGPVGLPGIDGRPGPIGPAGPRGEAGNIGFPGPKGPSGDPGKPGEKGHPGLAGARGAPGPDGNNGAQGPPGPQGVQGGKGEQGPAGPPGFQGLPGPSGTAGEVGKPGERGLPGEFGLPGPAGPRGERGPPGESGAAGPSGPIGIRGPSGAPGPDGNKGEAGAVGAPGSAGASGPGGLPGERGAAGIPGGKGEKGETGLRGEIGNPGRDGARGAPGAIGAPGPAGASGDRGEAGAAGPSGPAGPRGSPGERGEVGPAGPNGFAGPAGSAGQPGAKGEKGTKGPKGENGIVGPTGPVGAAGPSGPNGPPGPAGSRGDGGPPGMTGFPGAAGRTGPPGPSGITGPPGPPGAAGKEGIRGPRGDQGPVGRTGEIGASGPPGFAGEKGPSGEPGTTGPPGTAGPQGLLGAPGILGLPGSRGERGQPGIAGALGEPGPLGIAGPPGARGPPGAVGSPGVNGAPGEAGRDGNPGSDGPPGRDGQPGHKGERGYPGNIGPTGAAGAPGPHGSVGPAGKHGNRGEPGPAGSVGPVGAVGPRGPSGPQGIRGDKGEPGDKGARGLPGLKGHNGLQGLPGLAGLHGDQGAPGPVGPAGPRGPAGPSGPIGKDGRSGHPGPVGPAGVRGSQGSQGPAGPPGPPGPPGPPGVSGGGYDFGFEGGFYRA", "experiment": "co-sedimentation"}, "[4]": {"target": "NC3 domain of the small collagen XII subunit (190 kD) (chick)", "experiment": "two-dimensional SDS-PAGE"}},
  "data": [
    {"substance": "collagen XII, small variant (small subunit, 220 kD) (natural protein)", "values": [
      {"measurement": "stoichiometry N", "setting": "[1]", "value": 3},
      {"measurement": "stoichiometry N", "setting": "[2]", "value": 3}
    ]},
    {"substance": "NC3 domain of the large collagen XII subunit (290 kD), collagenase-treated collagen XII (domain or fragment)", "values": [
      {"measurement": "percent of truncated collagen XII in the pellet (90 mM NaCl, 30 mM phosphate)", "setting": "[3]", "value": 20, "unit": "%"}
    ]},
    {"substance": "NC3 domain of the small collagen XII subunit (190 kD) (domain or fragment)", "values": [
      {"measurement": "stoichiometry N", "setting": "[4]", "value": 3}
    ]}
  ]
}
